Our source for the stoichiometry N values is publication PMC2602789.

Broadly, the stoichiometry N is a count of units in the complex or per binding partner.

This experiment addresses wild-type Tn3 resolvase (bacterial transposon Tn3) (UniProt P0ADI2). Kind of experiment: SEC. A general note: In gel filtration, larger molecules generally elute earlier.

Consider “wild-type Tn3 resolvase (from UniProt P0ADI2 1-185) (enzyme)”, for which the stoichiometry N came out at 2.
